Results: doi:10.1101/2025.07.10.664112 (bioRxiv, 2025)
“And” between values parts separate entries of the source, which are not always exact repeats. Equal entries are not always repeated.

Target: the molecule itself
Assay: mass photometry

B1: Heterogeneous nuclear ribonucleoprotein A2/B1 (hnRNPA2B1), full length, tag-free (natural protein, human, UniProt P22626 1-353, looked up)
chain: MEKTLETVPLERKKREKEQFRKLFIGGLSFETTEESLRNYYEQWGKLTDCVVMRDPASKRSRGFGFVTFSSMAEVDAAMAARPHSIDGRVVEPKRAVAREESGKPGAHVTVKKLFVGGIKEDTEEHHLRDYFEEYGKIDTIEIITDRQSGKKRGFGFVTFDDHDPVDKIVLQKYHTINGHNAEVRKALSRQEMQEVQSSRSGRGGNFGFGDSRGGGGNFGPGPGSNFRGGSDGYGSGRGFGDGYNGYGGGPGGGNFGGSPGYGGGRGGYGGGGPGYGNQGGGYGGGYDNYGGGNYGSGNYNDFGNYNQQPSNYGPMKSGNFGGSRNMGGPYGGGNYGPGGSGGSGGYGGRSRY
- stoichiometry N: 2 and 4
